Biological target: T1, hAng-1 (human, UniProt Q15389 20-498, limits assumed)
T1 construct: Used in 'the same experiment' as hAng-2 C-His in SPR
T1 sequence (looked up): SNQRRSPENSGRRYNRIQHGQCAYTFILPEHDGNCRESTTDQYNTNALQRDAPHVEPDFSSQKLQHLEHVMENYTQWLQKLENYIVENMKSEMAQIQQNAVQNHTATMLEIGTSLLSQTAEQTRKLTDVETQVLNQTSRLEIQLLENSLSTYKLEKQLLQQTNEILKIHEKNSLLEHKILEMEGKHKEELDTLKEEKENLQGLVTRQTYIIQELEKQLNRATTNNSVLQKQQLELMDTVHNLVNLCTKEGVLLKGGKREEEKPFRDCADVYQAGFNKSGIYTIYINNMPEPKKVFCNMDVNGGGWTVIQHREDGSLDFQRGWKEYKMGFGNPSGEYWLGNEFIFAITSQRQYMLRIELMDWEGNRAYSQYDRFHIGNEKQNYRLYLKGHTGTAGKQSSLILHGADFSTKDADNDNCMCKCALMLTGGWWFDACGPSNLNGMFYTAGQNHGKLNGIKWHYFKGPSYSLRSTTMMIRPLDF
Assay: SPR, BIAcore T100, antigen captured on chip, antibody from 100 nM in two-fold dilutions
Description: An anti-His antibody was immobilized to the degree of 8,000 response units (RU) on a CM5 sensor chip (GE Healthcare) using a pH 5.0 acetate solution and an amine coupling kit (GE Healthcare). Recombinant hAng-2 protein (C-His, R&D Systems) was flowed into this immobilized antibody at a concentration of 6 μg/ml to capture the antibody at 100˜200 RU. In this regard, the antibodies obtained in Reference Example 2.2.2 were serially diluted by half each time starting from 100 nM before application. […] Kd values were calculated from the measurements. The same experiment was conducted with hAng-1.

B1: SAIT-ANG-2-AB-m1B6 (antibody, V domains shown)
VH: QIQLVQSGPELKKPGETVKISCKASGYTFTNYGMNWVKQAPGKGLKWMGWINTYTGEPTYADDFKGRFAFSLETSASTAYLQINNLKNEDTATYFCARDHDGYLMDYWGQGTSVTVSS
VL: DIQMTQTTSSLSASLGDRVTISCSTSQGISNYLNWYQQKPDGTVKLLIFYTSSLHSGVPSRFSGSGSGTDYSLTISNLEPEDIATYYCQQYSKLPYTFGGGTKLEIK
notes: Mouse hybridoma monoclonal antibody purified on protein G; also called SAIT-ANG-m2-AB-1B6
binding result: no binding

B2: SAIT-ANG-2-AB-m3E2 (antibody, V domains shown)
VH: EVQLQQSGAELVKPGASVKLSCTASGFNIKDPYIHWVKQRPEQGLEWIGRIDPANGNTKYDPKFQGKATITADTSSNTAYLQLSSLTSEDTAVYYCVRRWDGGGFDYWGQGTSVTVSS
VL: DIQMTQTTSSLSASLGDRVTISCRASQDISNYLNWYQQKPDGTVKLLIYYTSRLHSGVPSRFSGSGSGTDYSLTITNLEQEDIATYFCQQGNTLPWTFGGGTKLEIK
notes: Mouse hybridoma monoclonal antibody purified on protein G
binding result: no binding

B3: SAIT-ANG-2-AB-m8D3 (antibody, V domains shown)
VH: EVQLQQSGPELVKPGDSVKMSCKASGYTFTDYYMKWVRQSHGKSLQWVGEINPKNGDTFYNQIFKGKATLTVDKSSSTAYMQLTSLTSEDSAVYYCTRENDYDVGFFDYWGQGTSVTVSS
VL: TIVMTQTPKFLLVSAGDRITITCKASQSVSNDVAWYQQKPGQSPKLLIYYASNRYPGVPDRFTGSGYGTDFTFTISTVQAEDLAVYFCQQDYTSPWTFGGGTELEIK
notes: as for B2
binding result: no binding

— US20140302039A1 (SAMSUNG ELECTRONICS, published 2014)
